Reference: PMC5567289, “Characterization and structural determination of a new anti-MET function-blocking antibody with binding epitope distinct from the ligand binding domain” (Scientific Reports, 2017)

How the values were obtained:
Settings in all cases: both partners purified
[1] = target: T1, MET (Homo sapiens, UniProt P08581); test: SPR; Biacore; mean of three experiments; 107_A07 Fab purified sequentially on KappaSelect and GammaBind Plus; MET construct and who was immobilised not stated
T1 construct: MET receptor; Further methods are said to stand in the Supplementary Information file

[2] = target: T2, MET567 (Homo sapiens, UniProt P08581); test: SEC; 6 µM Fab and 4 µM MET (3:2 molar ratio) co-incubated 140 minutes at room temperature in 25 mM Tris pH 7.4, 150 mM NaCl; Superdex 200 10/300
T2 construct: MET receptor (HGF/SF receptor), recombinant truncation of the ectodomain with the SEMA and CR domains and no Ig domain; The ectodomain is cut by furin into an alpha and a beta chain; written here as one chain; also called soluble fragment of the MET ectodomain comprising the SEMA and cysteine-rich (CR) domain

[3] = target: T3, MET928 (UniProt P08581); test: SPR; CM5 chip coated with MET928; 7A2 scFv (134 nM, 268 nM), NK1 (238 nM, 476 nM) or a mixture (134 nM 7A2 scFv, 238 nM NK1); 60 s injections
T3 construct: MET receptor (HGF/SF receptor), recombinant ectodomain with the SEMA, CR and Ig1-4 domains; The ectodomain is cut by furin into an alpha and a beta chain; written here as one chain; also called MET extracellular domain (MET928); His-tagged MET928; source: recombinant

[4] = target: T3, MET928; test: SEC; 6 µM Fab and 4 µM MET (3:2 molar ratio) co-incubated 140 minutes at room temperature in 25 mM Tris pH 7.4, 150 mM NaCl; Superdex 200 10/300
[5] = target: T4, MET741 (Homo sapiens, UniProt P08581); test: as above
T4 construct: MET receptor (HGF/SF receptor), recombinant truncation of the ectodomain with the SEMA, CR and Ig1-2 domains; The ectodomain is cut by furin into an alpha and a beta chain; written here as one chain; also called soluble MET741; his-tagged MET741; source: CHO Lec3.2.8.1 cells, purified (NiNTA, cation exchange MonoS)
T4 sequence (P08581 25-741): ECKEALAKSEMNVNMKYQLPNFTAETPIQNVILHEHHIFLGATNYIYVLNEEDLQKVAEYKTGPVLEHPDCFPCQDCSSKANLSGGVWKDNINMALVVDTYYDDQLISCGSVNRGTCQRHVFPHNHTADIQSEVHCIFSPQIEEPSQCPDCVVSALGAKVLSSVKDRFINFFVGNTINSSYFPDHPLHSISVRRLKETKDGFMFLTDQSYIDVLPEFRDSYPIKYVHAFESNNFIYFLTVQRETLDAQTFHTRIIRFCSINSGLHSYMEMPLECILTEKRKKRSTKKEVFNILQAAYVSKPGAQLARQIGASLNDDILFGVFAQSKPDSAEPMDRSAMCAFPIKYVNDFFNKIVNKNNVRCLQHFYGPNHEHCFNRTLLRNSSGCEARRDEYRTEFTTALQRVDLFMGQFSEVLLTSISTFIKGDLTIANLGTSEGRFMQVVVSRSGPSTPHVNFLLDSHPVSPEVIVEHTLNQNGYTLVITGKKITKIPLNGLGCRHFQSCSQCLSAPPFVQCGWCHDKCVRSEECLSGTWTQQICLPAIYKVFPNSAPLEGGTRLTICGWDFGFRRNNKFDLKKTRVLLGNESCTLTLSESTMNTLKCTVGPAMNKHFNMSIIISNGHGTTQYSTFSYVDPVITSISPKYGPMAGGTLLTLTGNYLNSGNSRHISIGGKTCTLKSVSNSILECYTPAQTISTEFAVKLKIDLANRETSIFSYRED

T2 sequence (P08581 39-564): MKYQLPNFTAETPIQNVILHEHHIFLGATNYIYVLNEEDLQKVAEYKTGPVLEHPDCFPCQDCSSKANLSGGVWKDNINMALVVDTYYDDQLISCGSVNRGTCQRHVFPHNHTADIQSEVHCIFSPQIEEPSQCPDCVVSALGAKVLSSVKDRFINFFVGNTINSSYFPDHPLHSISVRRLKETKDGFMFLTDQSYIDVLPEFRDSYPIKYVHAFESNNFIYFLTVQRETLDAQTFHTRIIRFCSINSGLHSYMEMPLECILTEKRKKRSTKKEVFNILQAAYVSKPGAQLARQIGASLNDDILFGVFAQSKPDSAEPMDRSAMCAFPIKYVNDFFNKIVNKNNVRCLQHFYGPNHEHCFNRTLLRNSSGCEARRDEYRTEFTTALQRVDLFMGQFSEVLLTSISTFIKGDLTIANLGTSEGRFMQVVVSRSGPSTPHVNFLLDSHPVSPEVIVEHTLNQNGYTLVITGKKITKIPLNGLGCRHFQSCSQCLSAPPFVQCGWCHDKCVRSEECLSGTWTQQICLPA
T3 sequence (P08581 25-932): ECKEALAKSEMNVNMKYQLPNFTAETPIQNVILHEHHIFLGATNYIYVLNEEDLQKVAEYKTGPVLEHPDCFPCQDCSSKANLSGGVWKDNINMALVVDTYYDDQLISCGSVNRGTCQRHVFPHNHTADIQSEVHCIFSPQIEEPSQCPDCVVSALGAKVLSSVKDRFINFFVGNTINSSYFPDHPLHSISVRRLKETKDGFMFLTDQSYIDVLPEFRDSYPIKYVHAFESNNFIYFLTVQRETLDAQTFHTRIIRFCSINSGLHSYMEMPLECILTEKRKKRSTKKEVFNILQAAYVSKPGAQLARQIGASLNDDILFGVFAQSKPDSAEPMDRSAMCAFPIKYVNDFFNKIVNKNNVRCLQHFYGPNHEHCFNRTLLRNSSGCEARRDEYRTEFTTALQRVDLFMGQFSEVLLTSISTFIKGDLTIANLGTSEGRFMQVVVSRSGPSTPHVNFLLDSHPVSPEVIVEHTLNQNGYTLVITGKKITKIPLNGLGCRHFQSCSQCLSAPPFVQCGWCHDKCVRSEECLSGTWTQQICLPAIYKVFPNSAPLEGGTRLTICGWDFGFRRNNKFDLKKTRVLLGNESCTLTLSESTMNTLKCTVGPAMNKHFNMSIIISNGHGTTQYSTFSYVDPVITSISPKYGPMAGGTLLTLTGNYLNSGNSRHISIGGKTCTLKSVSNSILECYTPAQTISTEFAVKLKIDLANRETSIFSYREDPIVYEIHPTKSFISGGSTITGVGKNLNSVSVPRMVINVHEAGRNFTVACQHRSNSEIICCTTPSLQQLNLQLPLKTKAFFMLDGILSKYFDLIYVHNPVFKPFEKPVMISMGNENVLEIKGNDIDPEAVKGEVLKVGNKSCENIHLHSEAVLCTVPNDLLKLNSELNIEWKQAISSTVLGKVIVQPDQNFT
T1 sequence (P08581 25-1390): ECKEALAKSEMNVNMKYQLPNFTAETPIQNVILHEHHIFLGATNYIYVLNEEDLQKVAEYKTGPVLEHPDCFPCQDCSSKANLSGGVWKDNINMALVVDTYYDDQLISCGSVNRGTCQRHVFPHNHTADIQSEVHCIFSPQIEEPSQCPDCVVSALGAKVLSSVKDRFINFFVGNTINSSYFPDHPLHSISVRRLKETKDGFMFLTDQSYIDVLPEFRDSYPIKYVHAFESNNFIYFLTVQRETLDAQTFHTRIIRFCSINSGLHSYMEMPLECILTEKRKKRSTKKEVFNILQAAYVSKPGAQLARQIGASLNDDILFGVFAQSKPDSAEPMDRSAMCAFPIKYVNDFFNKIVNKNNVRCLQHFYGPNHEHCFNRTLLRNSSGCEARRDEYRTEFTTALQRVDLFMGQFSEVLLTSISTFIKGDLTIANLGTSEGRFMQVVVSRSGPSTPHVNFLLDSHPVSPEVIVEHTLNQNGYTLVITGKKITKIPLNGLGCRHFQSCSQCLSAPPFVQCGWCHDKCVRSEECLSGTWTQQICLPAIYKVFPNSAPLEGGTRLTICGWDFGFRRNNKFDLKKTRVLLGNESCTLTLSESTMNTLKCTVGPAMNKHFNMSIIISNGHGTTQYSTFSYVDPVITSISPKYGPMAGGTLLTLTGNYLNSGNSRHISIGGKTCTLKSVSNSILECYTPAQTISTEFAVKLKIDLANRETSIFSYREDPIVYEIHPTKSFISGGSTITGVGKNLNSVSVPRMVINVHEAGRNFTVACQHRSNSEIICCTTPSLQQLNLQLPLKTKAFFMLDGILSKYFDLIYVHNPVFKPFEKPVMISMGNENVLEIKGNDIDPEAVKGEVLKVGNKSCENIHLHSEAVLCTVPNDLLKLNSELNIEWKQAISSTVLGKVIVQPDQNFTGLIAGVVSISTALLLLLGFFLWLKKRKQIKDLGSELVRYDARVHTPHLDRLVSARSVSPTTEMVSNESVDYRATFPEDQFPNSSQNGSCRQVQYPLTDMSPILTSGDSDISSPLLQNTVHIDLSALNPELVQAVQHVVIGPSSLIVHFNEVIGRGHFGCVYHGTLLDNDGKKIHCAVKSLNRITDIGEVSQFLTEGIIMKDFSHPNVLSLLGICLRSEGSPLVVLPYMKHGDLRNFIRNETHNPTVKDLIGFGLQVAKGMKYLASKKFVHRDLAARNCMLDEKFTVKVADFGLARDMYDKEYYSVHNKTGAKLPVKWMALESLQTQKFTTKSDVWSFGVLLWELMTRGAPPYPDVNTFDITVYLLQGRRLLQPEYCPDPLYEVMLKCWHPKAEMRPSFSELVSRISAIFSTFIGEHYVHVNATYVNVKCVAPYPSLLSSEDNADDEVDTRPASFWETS

B1: 107_A07 Fab (Fab, V domains shown)
VH: QMQLVQSGAEVKKPGAPVKVSCKVSGYTFTDYYMHWVQQAPGKGLEWMGLVDPEDGETIYAEKFQGRVTITADTSTDTAYMELSSLRSEDTAVYYCATDATTPYWGMMWWGQGTLVTVSS
VL: DIQMIQSPSSLSASVGDRVTITCQASQDISNYLNWYQQKPGRAPKVLIYDASNLETGVPSRFSGSGSGTEFTLTISNLRPDDFATYYCQQGDSFPLTFGGGTKVEIK
notes: Fab heavy chain is chain H of the deposited structure PDB 5LSP; Fab light chain is chain L of the deposited structure PDB 5LSP
Question: Which results are given for B1?
Answer: Kd [1]: 3.2 nM; binding result [2]: no binding (tested: 6 µM Fab, 4 µM MET567)

B2: 7A2 scFv (scFv, V domains shown)
VH: QMQLVQSGAEVKKPGAPVKVSCKVSGYTFTDYYMHWVQQAPGKGLEWMGLVDPEDGETIYAEKFQGRVTITADTSTDTAYMELSSLRSEDTAVYYCATDATTPYYGMDVWGQGTLVTVSS
VL: DIQMTQSPSSLSASVGDRVTITCQASQDISNYLNWYQQKPGRAPKVLIYDASNLETGVPSRFSGSGSGTEFTLTISNLRPDDFATYYCQQGDSFPLTFGGGTKVEIK
notes: VH of 7A2: as the VH of m1 (PDB 5LSP chain H) except in CDR3, where 7A2 has Y105 instead of W105; VL of 7A2: as the VL of m1 (PDB 5LSP chain L); also called clone 7A2; source: Pichia pastoris, purified (Ni-NTA, gel filtration)
Question: Does B2 bind [3]?
Answer: Result: binds

B3: 7A2 Fab (Fab, V domains shown)
VH: QMQLVQSGAEVKKPGAPVKVSCKVSGYTFTDYYMHWVQQAPGKGLEWMGLVDPEDGETIYAEKFQGRVTITADTSTDTAYMELSSLRSEDTAVYYCATDATTPYYGMDVWGQGTLVTVSS
VL: DIQMTQSPSSLSASVGDRVTITCQASQDISNYLNWYQQKPGRAPKVLIYDASNLETGVPSRFSGSGSGTEFTLTISNLRPDDFATYYCQQGDSFPLTFGGGTKVEIK
notes: as the light chain of m1 (PDB 5LSP chain L): the matured clones came from VH CDR3 mutagenesis and VL mutants were not identified; also called Fab 7A2; Fab-formatted 7A2
Question: Does B3 bind [4]?
Answer: Result: binds

Question: Does B3 bind [2]?
Answer: Result: no binding (tested: 6 µM Fab, 4 µM MET567)

Question: Does B3 bind [5]?
Answer: Result: binds
